From the nanobody polyreactivity screen of Harvey et al. (2022)

Test: yeast display, Sf9 membrane polyspecificity reagent, FACS + sequencing; frameworks hold sequencing errors
In short: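 Galactose-induced (36–48 hours) yeast carrying a synthetic nanobody display library were exposed to 10% biotinylated, detergent-solubilized Sf9 membrane reagent at 4 °C for 1 hour. FACS followed streptavidin microbead enrichment, using low and high (top ~1%) gates for expression (anti-HA) and reagent binding (streptavidin). Colony PCR, MiSeq 2 × 250 sequencing and CDR-length filtering followed. Labels for polyreactivity reflect the gate of origin.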

Sequence: QVQLVESGGGLVQAGGSLRLSCAASGSIFEYNAMGWYRQAPGKERELVAAITRGGNTYYADSVKGRFTISRDNAKNTVYLQMNSLKPEDTAVYYCAAVQWYGYPYYSWGQGTQVTVSS
- polyreactivity (PSR sort gate): low polyreactivity

Sequence: QVQLVESGGGLVQAGGSLRLSCAASGSIFWSNAMGWYRQAPGKEREFVAAITWSGDNTYYADSVKGRFTISRDNAKNTVYLQMNSLKPEDTAVYYCAASGDYYWDEGDYWGQGTQVTVSS
- polyreactivity (PSR sort gate): low polyreactivity

Sequence: QVQLVESGGGLVQAGGSLRLICAASGRSFDYYAMGWYRQAPGKERDLVAAITSGGTTTYYADSVKGRFTISRDNAKNTVYVQMNSLKPEDYAVYYCAKYPYHIYHTDGDYWGQGTQVTVSS
- polyreactivity (PSR sort gate): low polyreactivity

Sequence: QVQLVESGGGLVQAGGSLRLSCAASGNTFRVYTMGWYRQAPGKERELVAAINSSGRTNYADSVKGRFTISRDNAKNTVYLLMNCLKPEDTAVYYCAADYYQWSTFLGVYEYAYWGQGTQVTVSS
- polyreactivity (PSR sort gate): low polyreactivity

Sequence: QVQLVESGGGLVQAGGSLRLSCAASGSTIRYYAMGWYRQAPGKERELVAAITSSGTSTYYADSVKGRFTISRDNAKNTVDLQMNRLKPEDTAVYYCAARPVYKWVSSRYDYWGQGTQVTVSS
- polyreactivity (PSR sort gate): low polyreactivity

Sequence: QVQLVESGGGLVQEGGSLRLSCAASGRIFPYYAMGWYRQAPGKERELVATITSGGSTYYADSVKGRFTISRDNAKNTVYLQMNSLKPEDTAVYYCAARYPSIYYYRYDYWGQGTQVTVSS
- polyreactivity (PSR sort gate): high polyreactivity

Sequence: QVQLQESGGGLVQAGGSLRLSCAASGYISHADEMGWYRQAPGKEHELVASISNGGSTNYADSVKGRFTISRDNAKNTVYLQMNSLKSELTAVYYCAAWTGQVDIHYYWGQGTQVTVSS
- polyreactivity (PSR sort gate): low polyreactivity

Sequence: QVQLEESGGGLVQAGGSLRLSCAASGRTFSYYSMGCYRKAPGKERELVAAITSGGRTYYADSVKGRFTISRDNAKNTVYLQINSLKPEDTAVYYCAARWYARSLTRFNYWGQGTQVTVSS
- polyreactivity (PSR sort gate): high polyreactivity

Sequence: QVQLVESGGGLVQAGSSLRLSCAASGSTFLYYAMGWYRQAPGKEREMVAAITSSGGRTYYADSVKGRFTNSRDNAKNTDYLQMNSLKPEDTAVYYCARGWPRREQSEYDYWGQGTQVTVSS
- polyreactivity (PSR sort gate): high polyreactivity

Sequence: QVQLVESGGGLVQAGGSLRLSCAASGSIFYIYAMGWYRPAPGKEREFVAAITWTGGSTYYADSVKGRFTISRDNAKNTVYLQMNSLKPEDTAVYYCARATVGAWRKMYSWGQGTQVTVSS
- polyreactivity (PSR sort gate): high polyreactivity

Sequence: QVQLVESGGGLVQAGGSLRISCAASGSIFLYYAMGWYRQPPGKEREFVAAISYSGGRTYYADSVKGRFTISRDNAKNTVYLQMNSLKPEDTAVYYCNALYRLGVSGLTQSRYGYWGQGTQVTVSS
- polyreactivity (PSR sort gate): high polyreactivity

Sequence: QVQLVESGGGLVQAGGSLRLSCAASGRIFGEYAMGWYRQAPGKERELVAAITSSTGSTYYADSVKGRFTISRDNAKNTVYLQMNSLKPEDTAVYYCAAADLKYASYWYDYWGQGTQVTVSS
- polyreactivity (PSR sort gate): low polyreactivity

Sequence: QVQLVESGGGLVQAGRSLRLSCAASGTIFAFYAMGWYRQAPGIVRELVAAITWRGGRTTYADSVKGRFTISRDNAKNTVYLQMNSLKPEDTAVYYCAAVIHWWYATYDYWGQGTQVTVSS
- polyreactivity (PSR sort gate): high polyreactivity

Sequence: QVQLVESGGGLVQAGGSLRLSCAASGSTFGDNAMVWYRQAPGKERELVAAITFRDGITYYADSVKGRITISRDNAKNSVYLQMNSLKPEDTAFYYCAKGVHRRWYYGYGYWGQGTQVTVSS
- polyreactivity (PSR sort gate): high polyreactivity

Sequence: QVKLVESGGCLVQEGGSHRLSCAASGYIFDAYAMGWYRQAPGQERELVAAIDIGGSTYYADSVKGRFTISRDNAKNTVYLQMNSLKPEDTAVYYCAVWFYFDQWDYAREYWGQGTQVTVSS
- polyreactivity (PSR sort gate): low polyreactivity

Sequence: QVQLVESGGGLVQAGGSLRLSCASSGSTIGRNAMGWYRQAPGKERELVASISSGGSTYYADSVKGRFTISRDNAKNTVYLQMESLKPEDTAVYYCARRAYQNWYNYWGQGTQVTVAS
- polyreactivity (PSR sort gate): high polyreactivity

Sequence: QVQLVESGGGLVQAGGSLRLSCAASGRNFSRYAMGWYRQAPGKERELVAAISRRGGSTYYADSVKGRFTISRDNAKNTVYLQMNSLKPEDTAVYFCAKYPSAYVDSDVTYDMDYWGQGTQVTVSS
- polyreactivity (PSR sort gate): low polyreactivity

Sequence: QVQLVETGGGLVQAGGSLRLSCAASGSTFVYNAMGWYRPAPGNERELVAAITNSGSTYYADSVKGRFTISRDNAKNTVYLQMNSLKPEDTAVYDCAARSRVYWARSGYWGQGTQVTVSS
- polyreactivity (PSR sort gate): low polyreactivity

Sequence: QVQLVESGGCLVQAGGSLRLSCAASGRIIGANAMGWYRQAPGKERELVAAITKNGGRTYYADSVKGRFTISRDNAKNTVYLQMNSLKPEDTAVYYCARGLDVISYGYDYWVQGTQVTVSS
- polyreactivity (PSR sort gate): high polyreactivity

Sequence: QDQLVESGGGLVQAGGSLRLSCAASGSIFPDYVMGWYRQAPGKERELVAAISASGGSTYYADSVKGRFTISRDNEKNTVYLKMNSLKPEDTAVYYCNASPKTYLRRKYDYWGQGTQVTVSS
- polyreactivity (PSR sort gate): high polyreactivity

Sequence: QVQLVESGGGLVQAGGSLRLSCAASGFTIWPYAMGWYRQPPGKERELVAGITRNGGSTYYADSVKGRFTISRDNAKNTVYLQMNSLKPEDTAVYYCNTKYAVEFDYWGQGTQVTVSS
- polyreactivity (PSR sort gate): low polyreactivity

Sequence: QVQHVESGGGLVQAGGSLRLSCAASGRIYAMGWYRQAPGKERELVARITKSGTSTYYADSVKGRFTISRDNAKNTVYLQMNSLKPEDTAVYYCNARYWGYWGDHYDYWGQGTQLTVSS
- polyreactivity (PSR sort gate): high polyreactivity

Sequence: QVQLVESGGGLVQAGGSLRLSCAASGFTFFSKAMGWYRQAPGKERELVAAITTNGGSTYYADSVKGRFTISRDNAKNTVYLQMNSLKPEETAVYYCAADYSLPWSWLYEYWGQGTQVTVSS
- polyreactivity (PSR sort gate): low polyreactivity

Sequence: QVQLVESGGGLVQAGGSLRLSCAASGFIFGWYAMGWYRQAPGKERELVAAINWSGTSTYYADSVKGRFTISRDNAKNTVYLQMNILKPEDTAVYYCAAYFQNLPTTGYDYWGQGTQVTVSS
- polyreactivity (PSR sort gate): low polyreactivity

Sequence: QVQLVESGGGLVQAGGSLRLSCAASGSIFALYAMGWYRQAPGKERELVAAISWRAGGTYYADSVKGRFTISRDNAKNTVYLQMNSLKPEDTAVYYCAAEISLYYYGDYEYWGVGTQVTVSS
- polyreactivity (PSR sort gate): high polyreactivity

Sequence: QVQLVESGGGLFQAGGSLRLSCAASGITFAYYAMAWYRQAPGKERELVARISRRGGSTYYADSVKGRFTISRDNAKNTVYLQMNSLKPEDTAVYYCAARVVVPKPYVDGDYWGQGTQVTVSS
- polyreactivity (PSR sort gate): high polyreactivity

Sequence: QVQLVESGGGLVQAGGSLRLSCAASGFIFVVYAMGWYRQAPGTERELVATISSGGGTYYADSVKGRFTISRDNAKITVYLQMNSLKPEDTAVYYCAARRRRLYHFGGNNYWGQGTLVTVSS
- polyreactivity (PSR sort gate): high polyreactivity

Sequence: QVQLVESGGGLVQAGGSLRLSCAASGFISDVYAMGCYRQAPGKERELVAVITWRGSTYYAYSVKGRFTISRDNAKNTVYLQMNSLKPEDTAVYYCAAESQGDWAFDYWGQGTQVTVSS
- polyreactivity (PSR sort gate): low polyreactivity

Sequence: QVQHVESGGGLVQAGGSLRLSCAASGGTFGSNTMGWYRQARGKERELVAAITSGVSTYYADSVKGRFTISRDNAKNTVYLQMNSLKPEDTAVFYCAADTTQVQGVEGDYWGQGTQVTVSS
- polyreactivity (PSR sort gate): low polyreactivity

Sequence: HVPLVESGGGLVQAGGSLRLSCAASGFTFRANGMGWYRQAPGKERELVATIPSGGTTNYADSVKGRFTISRDNAKKTVYLQMNSLKPEDNAVYDCAASLGANGFQGRMYYWGQGTQVTVSS
- polyreactivity (PSR sort gate): low polyreactivity

Sequence: QVQLVESGGGLVQAGGILRLSCAASGFIFKSYAMGWYRQAPGKERELVAGITRRGGSTYYADSVKGRFTISRDNAKNTVYLQMNILKPEDTAVYYCNAGRKTADYDFLGQGTQVTVSS
- polyreactivity (PSR sort gate): high polyreactivity

Sequence: QVQLVESGGGLVQAGGSLRLSCAASGRTFVDYDMGWYRQAPGKERELVADINSGGSTYYADSVKGRFTISRDNAKNTVYLQMNSLKPEDTAVYYCAARPYYWGQGTQVTVSS
- polyreactivity (PSR sort gate): high polyreactivity

Sequence: QVQLVESGGGLVQAGGSLRLSCAASGFIFSNNAMGWYRQAPGKERELVAVINGGGSTYYADSVKGRFTISRDNAKNTVYLQMNSLKPEDTAVYYCARKSWPKERRVDPGYDYWGQGTQVTVSS
- polyreactivity (PSR sort gate): low polyreactivity

Sequence: QVQLVESGGGLVQAGASLRLSCAASGRTFWKYVMGWYRQAPGKDRLLVAVISRPAGSTYYADSVKGRFTISRDNAKNTVYLQMNSLKPEDTAVYYCAKRPKNKPVLGDFDHWGQGTQVTVSS
- polyreactivity (PSR sort gate): low polyreactivity

Sequence: QVQLVESGGGLVQAGGSLRLSCAASGSIFVIYTMGWYRQAPGKERELVAVITWSTGNTYYADSVKGRFTISRDNAKNTVYLQMNSLKPEDTAVYYCAARTTSRWRSCAYYYWGQGTQVTVSS
- polyreactivity (PSR sort gate): high polyreactivity

Sequence: QVQLVESGGGLVQAGGSLRLSCAASGSTFQSYAMGWYRQAPGKERELVAAISTSDTDRTYYADSVKGRFTISRDNAKNTVYLQMNSLKPEDTAVYYCNADGYSHGDWYGYWGQGTQVTVSS
- polyreactivity (PSR sort gate): low polyreactivity

Sequence: QVQLVESGGGLVQAGGSLRLSCAASGRIFFYNDMGWYRQAPGKERELVASISSGTSTYYADSVKGRFTISRDNAKNTVYLQMNSLKPEDTAVYYCATGRPWHYSSATYDYWGQGTQVSVSS
- polyreactivity (PSR sort gate): low polyreactivity

Sequence: QVQLVESGGGLDQAGGSLRLSCAASGSTFLHYAMGWYRQAPRKERELVAAISFSGVRTYYADSVKGRFTISRDNAKNTVYLQMNSLKPEDTAVFYCAADGHHADYDYWGQGTQVTVSS
- polyreactivity (PSR sort gate): low polyreactivity

Sequence: QVQLVESGGGLVQAGGSLLLSCAASGSTFIPYAMGWYRQAPWKERELVAAITWSSGSTYYADSVKVRFTISRDNAKNTVFLQMNSLKTEDTAVYYCARDRYSVFDYDYWGQGTQVTVSS
- polyreactivity (PSR sort gate): low polyreactivity

Sequence: QVQLVESGGGLVQAGGSLRLSCAASGRIFNEYAMGWYRQAPGKERELVAAITYSDDSTYYADSVKGRFTISRDNAKNTVYLQMNSLKPEDTAVYYCNADTPVWDGHAYPVDYWGQGTQVTVSS
- polyreactivity (PSR sort gate): low polyreactivity

Sequence: QVQLVESGGGLVQAGGSLRLSCAASGSTFQTYAMGWYRQPPGKERELVAALNWRSGSTYYADSVKGRFTISRDNATNTVYLLMTSVKPEDTAVYDCARRSTGYTFDVSSMDYWGQGTQVTLSS
- polyreactivity (PSR sort gate): low polyreactivity

Sequence: QVQLVESGGGLVQAGGSLRLSCAASGFTFYYNAMGWYRQAPGKERELVASIRSGGSTKYADSVKGRFTISRDNAKNTVYLQMNSLKPEDTAVYYCAKERYHISFFYQMVYWGQGTQVTVSS
- polyreactivity (PSR sort gate): low polyreactivity

Sequence: QVQLVESGGGLVQAGGSLRLSCAASGSTFRGYAMGCYRQAPGKEREFVASISLSGGTDYADSVKGRFTISRDNAKNTVYLQMNSLKPEDTADYYCAAGYPAVSDSIEHNFWGQGTQVTVSS
- polyreactivity (PSR sort gate): low polyreactivity
